This data set relates to MS2 coat protein. As to the kind of experiment: apparent KD of MS2 coat protein; designed switch direction (-1 OFF switch, 1 ON switch): -1; higher = weaker reporter binding. In short, it runs like this: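 The reported apparent KD is a per-design median over clusters, from curve fits of normalised cluster fluorescence. Protein titrations used SNAP-549-labelled MS2 coat protein, doubled from 0.7 or 1.5 nM to 3 µM, in Tris-HCl pH 7.5 buffer with KCl, MgCl2, BSA, DTT, tRNA and Tween-20, with no input, 200 uM small-molecule ligand, or an oligonucleotide input. The RNA switches were transcribed on Illumina chips by stalled E. coli RNA polymerase.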

The mark [1] stands for this setting: input ligand: microRNA oligo, concentration not stated.

On to “CCUGCGGACAAAGGAUAUUGCGGUGGCCGGCUCGGCGUACCGAGCCUACAUGAGGAUCACCCAUGUAAGAAGGUUGUCGUUGGU [JL ViennaUCT Qudice mod] (Eterna round: R96, puzzle: Exclusion NG 2)”, for which the “apparent KD of MS2 coat protein” value reads like this: (input ligand: FMN 200 uM) 186 nM; under setting [1], 26.9 nM; (input ligand: none) 33.5 nM.
In the case of “UAAGAAUACUGAGGAUAUGCUAGUUUAUCUCAAGCAGAAGGCGGACUCAACAUGAGGAUCACCCAUGUAAGACGGGUACUAGAU [Ex NG1 #13] (Eterna round: R96, puzzle: Exclusion NG 1)”, the “apparent KD of MS2 coat protein” value is, setting by setting: (input ligand: FMN 200 uM) 319 nM; under setting [1], 59 nM; (input ligand: none) 832 nM.
Consider “CAGUUCUGACGGAGAUCCAACAUGAGGAUCACCCAUGUCUCAAAAGCUUUUUGCUCGUCUUAUCCUCCUCAGGACUC [Mat - Sensor, turn-off var - Eli Mod - D58] (Eterna round: R97, puzzle: Sensor, turn-off variant 1)”, for which the “apparent KD of MS2 coat protein” value (input ligand: FMN 200 uM) turned out to be 16.4 nM and the “apparent KD of MS2 coat protein” value (input ligand: none) was 16.4 nM.
With “GGCACACAUGAGGAUCACCCAUGUGAGGAUAUUAGGCGAUCGUCGAUAGACGAUAGCCUGAGAAGGCACAUGCC [Mat - Exclusion 1 - Eli Mod - D12] (Eterna round: R97, puzzle: Exclusion 1)”, the “apparent KD of MS2 coat protein” value by setting is: (input ligand: FMN 200 uM) 76.9 nM; (input ligand: none) 20.6 nM.
As for “AUUUUAUAUGAAGGAUAUACUUAACAUGAGGAUCACCCAUGUGGUGUUGUGAGUGAGUGAGUUUAGUAGAAGGUCAAUUAUUUU [JMF's solution 32] (Eterna round: R96, puzzle: Exclusion NG 2)”, the “apparent KD of MS2 coat protein” value is 781 nM (input ligand: FMN 200 uM), 167 nM under setting [1] and 257 nM (input ligand: none).
Take “CCUCCCUGAGGAUAUCCACCCUCAUACAUGAGGAUCACCCAUGUUCAUCCGUGGGUACCCGGAGAAGGCAGCUCUC [Megrez-c] (Eterna round: R97, puzzle: Exclusion 5)”: the “apparent KD of MS2 coat protein” value was determined as 80.8 nM (input ligand: FMN 200 uM) and 86.7 nM (input ligand: none).
Turning to “AAAUGCAGGUAAAGAUUCUACAUGAGGAUCACCCAUGUGCUCGUCUUAUAAAGUACUAUCACGAAAGUGAUAGUACA [Sensor 3, v1 - 41] (puzzle: Sensor v3, turn-off variant 1)”, the “apparent KD of MS2 coat protein” value stood at 27.6 nM (Eterna round: R95, input ligand: FMN 200 uM); 268 nM (Eterna round: R95, input ligand: microRNA oligo, concentration not stated); 26.6 nM (Eterna round: R95, input ligand: none).
On to “CCGGUGUGAGGAUAUCCAUCUGGAUCAGACUAGAUCCUGAUGGAGAAGGCACAUGAGGAUCACCCAUGUUACGG [Eli 4x 4.42] (Eterna round: R97, puzzle: Exclusion 4)”, for which the “apparent KD of MS2 coat protein” value (input ligand: FMN 200 uM) was determined as 567 nM and the “apparent KD of MS2 coat protein” value (input ligand: none) amounted to 656 nM.
Turning to “GCCUUACAUGAGGAUCACCCAUGUCAGGAUAUCGUUCAAGAUCUGACCUUAGAUCGAUCGAGAAGGGACUGGAU [Eternabot (L1) Solution 39] (Eterna round: R97, puzzle: Exclusion 1)”, the “apparent KD of MS2 coat protein” value (input ligand: FMN 200 uM) came out at 27.4 nM and the “apparent KD of MS2 coat protein” value (input ligand: none) was 17.2 nM.
The like results for “CGCUGGACAGGAUAUGUUCUUGGGCACUUGAGGAUCACCCAAGUCAUCAAAAACUCAGGCACAGAAGGGUUUAUGG [salish99_ex5_r4_019] (Eterna round: R97, puzzle: Exclusion 5)” were, in that order, 76 nM and 176 nM.
Consider “UGAUCUAGCGGAGGAUAUACAUGAGGAUCACCCAUGUAUAGGCUAUCUGGUGACAGGUGGAACAUGUAGAAGGCCGCUAGAUCU [JL ENG2 3.80] (Eterna round: R96, puzzle: Exclusion NG 2)”, for which the “apparent KD of MS2 coat protein” value was 78.1 nM (input ligand: FMN 200 uM), 12.7 nM under setting [1] and 17.9 nM (input ligand: none).
With “UUACGACAUGAGGAUCACCCAUGUUAGGAUAUGUGGCGAGAGCGCUAGCCUCGGGCCAACAGAAGGAAUAGGGC [Eternabot (L2) Solution 35] (Eterna round: R97, puzzle: Exclusion 1)”, the “apparent KD of MS2 coat protein” value came out at 53.4 nM (input ligand: FMN 200 uM) and 58.5 nM (input ligand: none).
As to “GGUGGGAGGGAUGUGGUGUACAUGAGGAUCACCCAUGUGGUGGACGGGCGCGGGUGCGGGUUUUUUGUUCGUCUUGU [High Nucleotide Full Attached] (Eterna round: R97, puzzle: Sensor, turn-off variant 1)”, the “apparent KD of MS2 coat protein” value reads like this: (input ligand: FMN 200 uM) 131 nM; (input ligand: none) 159 nM.
Regarding “AUAAGUGAUAAGGAUAUUACUAGCUUCGGCUAGUGAGAAGGUAUCACAUGAGGAUCACCCAUGUGUUCCAAUAA [Ex6/7-B1] (Eterna round: R97, puzzle: Exclusion 6)”, the “apparent KD of MS2 coat protein” value was found to be 270 nM (input ligand: FMN 200 uM) and 119 nM (input ligand: none).
